Test results: patent publication US20060183886A1

Target: asialoglycoprotein receptor on Hep G2 cells (human (Hep G2 cells)) (UniProt P07306)
Test: cell-based or functional assay

Sequence of UniProt P07306 (P07306 whole entry): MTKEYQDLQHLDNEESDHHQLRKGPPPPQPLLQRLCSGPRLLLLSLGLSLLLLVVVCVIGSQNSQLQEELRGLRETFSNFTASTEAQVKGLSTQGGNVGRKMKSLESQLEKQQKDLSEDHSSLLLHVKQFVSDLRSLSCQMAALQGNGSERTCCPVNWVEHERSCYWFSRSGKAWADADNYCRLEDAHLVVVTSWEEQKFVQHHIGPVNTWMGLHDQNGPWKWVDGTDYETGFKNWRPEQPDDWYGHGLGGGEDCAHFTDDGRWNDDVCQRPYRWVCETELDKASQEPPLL

Q: What does the source list for [YEE(ah-GalNAc)3]-SMCC-AET-pU^mpT7?
A: cell association (uptake) by Hep G2 cells, 1 uM conjugate alone, 37 C, two hours (pmol per 10^6 cells): 7.8; cell association (uptake) by Hep G2 cells, 1 uM conjugate with a 100-fold excess of free 5, 37 C, two hours (pmol per 10^6 cells): 0.42; uptake by Hep G2 cells, 1 uM conjugate, 37 C, about 24 hours (pmol per 10^6 cells): 26.6
